# Assay results from patent US6479055.
# Molecular target: viral gp41 (HIV-1 transmembrane protein) of HIV-1IIIB (HIV-1IIIB) (UniProt P03377)
# Assay: cell-based or functional assay
Substance,Cell fusion (IC90),HIV infectivity (IC90)
"DP107 (SEQ ID NO:25), synthetic peptide of residues 558 to 595 of HIV-1LAI gp41",1000 nM,1000 nM
"DP178 (SEQ ID NO:1), synthetic peptide of amino acids 638 to 673 of HIV-1LAI gp41",1 nM,80 nM
"M41 (maltose binding protein fused to the extracellular domain of HIV-1 gp41, residues 540-686) (from UniProt P0AEX9 27-392; P03377 540-686)",> 50000 nM,> 16000 nM
M41-P (M41 with an Ile to Pro mutation at position 578) (from UniProt P0AEX9 27-392; P03377 540-686),83 nM,66 nM
M41-PΔ178 (M41-P from which the DP-178 region has been deleted; gp41 amino acids 540-642 with Ile578Pro) (from UniProt P03377 540-642),> 50000 nM,> 8000 nM
